Target: His-tagged FtsZ (filamentous temperature-sensitive protein Z) (Streptococcus suis)
Assay: SPR; His-tagged FtsZ immobilized onto sensor chips as the ligand; MsmK constructs in concentration series as analytes; buffer without protein as negative control

Substance | Kd | koff | kon
B_MsmK, MsmK with the Walker B motif deleted, His-tagged (from UniProt A0A0H3N1P0 1-376) (enzyme) | 0.309 nM | 0.000132 s⁻¹ | 427000 M⁻¹ s⁻¹
A_MsmK, MsmK with the Walker A motif deleted, His-tagged (from UniProt A0A0H3N1P0 1-376) (enzyme) | 0.406 nM | 0.000102 s⁻¹ | 251000 M⁻¹ s⁻¹

Reference: publication PMC8546688
